According to US10337022B2, “Methods of increasing root biomass in plants” (Agresearch Limited, priority 2014, dated 2019):

Experiments:
BZR1 [1] = target: T1, BZR1 (Arabidopsis thaliana, UniProt Q8S307); test: Yeast two hybrid (Y2H) interaction with BZR1; assay type: binding; settings: yeast strain MaV203
T1 construct: expressed in transfected cells; host or cells: yeast strain MaV203
T1 sequence (Q8S307 with tags, fused parts or gaps): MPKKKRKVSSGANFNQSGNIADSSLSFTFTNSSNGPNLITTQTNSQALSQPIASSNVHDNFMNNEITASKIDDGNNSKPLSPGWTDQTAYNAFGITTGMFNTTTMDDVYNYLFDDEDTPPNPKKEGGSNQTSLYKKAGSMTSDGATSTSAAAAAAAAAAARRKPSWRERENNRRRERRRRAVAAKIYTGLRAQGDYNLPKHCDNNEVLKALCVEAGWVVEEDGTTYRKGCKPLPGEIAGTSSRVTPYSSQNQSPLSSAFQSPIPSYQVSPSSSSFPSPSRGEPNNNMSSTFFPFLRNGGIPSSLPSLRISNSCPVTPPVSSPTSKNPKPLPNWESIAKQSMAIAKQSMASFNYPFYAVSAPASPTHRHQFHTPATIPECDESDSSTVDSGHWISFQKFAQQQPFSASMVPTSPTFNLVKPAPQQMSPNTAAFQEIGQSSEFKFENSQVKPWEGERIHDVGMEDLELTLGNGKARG

NINJA = target: T2, NINJA (Arabidopsis thaliana, UniProt Q9SV55); test: Yeast two hybrid (Y2H) interaction with NINJA; assay type: binding; settings: PPD1 as bait protein
T2 construct: expressed in transfected cells; host or cells: yeast strain MaV203
T2 sequence (Q9SV55 with tags, fused parts or gaps): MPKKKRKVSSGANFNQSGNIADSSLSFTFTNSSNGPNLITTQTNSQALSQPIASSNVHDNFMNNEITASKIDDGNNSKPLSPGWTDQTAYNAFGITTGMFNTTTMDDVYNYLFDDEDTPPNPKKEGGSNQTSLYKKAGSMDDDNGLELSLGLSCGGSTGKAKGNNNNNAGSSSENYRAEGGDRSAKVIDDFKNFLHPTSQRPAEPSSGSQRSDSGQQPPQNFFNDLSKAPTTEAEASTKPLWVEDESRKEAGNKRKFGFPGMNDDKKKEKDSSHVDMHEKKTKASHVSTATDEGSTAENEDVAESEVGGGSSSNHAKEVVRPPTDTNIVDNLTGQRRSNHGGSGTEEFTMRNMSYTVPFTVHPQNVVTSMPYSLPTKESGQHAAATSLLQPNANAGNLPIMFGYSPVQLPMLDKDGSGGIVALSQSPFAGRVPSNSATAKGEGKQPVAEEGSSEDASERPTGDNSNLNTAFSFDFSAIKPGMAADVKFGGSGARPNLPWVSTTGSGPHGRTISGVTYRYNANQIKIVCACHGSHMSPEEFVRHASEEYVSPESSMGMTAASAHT
Protocol: Combinations of bait and prey constructs were used to co-transform yeast strain MaV203 (Invitrogen), with selection on synthetic dropout (SD) SD/-Leu/-Trp agar plates. Transformed strains were tested for interactions using 10 μl droplets of 1 in 10 and 1 in 100 dilutions on SD/-Leu/-Trp/-His plates with different concentrations of 3-aminotriazol (3-AT) (Sigma).

BZR1 [2] = target: T3, BZR1 (Arabidopsis thaliana, UniProt Q8S307); test: BiFC interaction with BZR1 in Nicotiana benthamiana leaves; assay type: cell-based
T3 construct: expressed in transfected cells; host or cells: Nicotiana benthamiana leaves (Agrobacterium infiltration)
T3 sequence (Q8S307 1-336): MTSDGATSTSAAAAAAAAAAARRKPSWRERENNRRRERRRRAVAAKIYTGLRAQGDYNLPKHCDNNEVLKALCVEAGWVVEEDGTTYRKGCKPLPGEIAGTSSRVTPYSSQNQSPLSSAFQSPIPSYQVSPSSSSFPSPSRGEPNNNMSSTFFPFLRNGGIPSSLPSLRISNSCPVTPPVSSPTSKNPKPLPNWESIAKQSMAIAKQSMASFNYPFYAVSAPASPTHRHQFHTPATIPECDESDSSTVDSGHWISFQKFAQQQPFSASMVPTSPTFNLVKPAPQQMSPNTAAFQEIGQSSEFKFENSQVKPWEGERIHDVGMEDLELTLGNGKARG
Description: The binary BiFC-Gateway YFP vectors pDEST-VYNE(R)^GW (Venus aa 1-173) and pDEST-VYCE(R)^GW (Venus aa 156-239) with N-terminal fusions, were used to construct the following vectors; pDESTnYFP-BZR1, pDESTnYFP-NINJA, pDESTnYFP-PPD1, pDESTcYFP-BZR1, pDESTcYFP-PPD1, pDESTcYFP-PPD1Δppd, pDESTcYFP-PPD1Δtify and pDESTcYFP-PPD1Δjas*. […] Plasmids for co-immunoprecipitation: A synthesised DNA construct encoding PPD1 with a 3×c-myc C-terminal fusion was sub-cloned into pRSh1 to produce pRSh1-PPD1-3×c-myc, while the NINJA cDNA sequence was sub-cloned into pB7FWG2,0 (Karimi et al 2002, Trends Plant Sci. 7, 193-195) to construct pB7FWG2-NINJA-GFP.
For infiltration Agrobacterium tumefaciens GV3101 strains containing the binary vectors were re-suspended from plates and prepared for transformation as described for the LUC assay. All YFP and expression strains were mixed in ratios of 1:1 (vol/vol) with the addition of strain P19 at 1/10th volume. Five leaf discs were sampled from each infiltrated leaf after 40 h. Two hours prior to sampling for microscopic fluorescence observations leaves were infiltrated with a 1 μg/ml DAPI solution to stain nuclei. YFP fluorescence and DAPI staining was detected using an Olympus Fluoview FV10i confocal laser scanning microscope. Each experiment was repeated twice.

[3] = system: PEAPOD deletion mutant Δppd Arabidopsis thaliana ecotype Landsberg erecta; test: Complementation of the Arabidopsis Δppd mutant leaf phenotype; assay type: in vivo; settings: optimized PEAPOD coding sequence under CaMV35s promoter, seedlings (FIG. 13)
Description: The functionality of any PEAPOD sequence can be confirmed by complementation of the Arabidopsis Δppd mutant leaf phenotype. Complementation of the Arabidopsis Δppd mutant leaf phenotype was first used to identify the Arabidopsis PPD gene (White 2006). This was seen by a restoration of the wild type flattened leaf phenotype and normal rosette shape as opposed to the domed leaf and the twisting of the rosette to a “propeller” phenotype.
Constructs above can be transformed into Arabidopsis by the floral dip infiltration method (Clough and Bent, 1998 Plant J 16, 735-43). The Δppd line is transformed to express the PPD polypeptides by standard techniques. Transgenic plants are confirmed by standard PCR analysis techniques with a combination of transgene-specific and T-DNA primers.
Complementation of the Δppd line to produce a wild-type leaf and rosette phenotype in T1 seedlings (the off-spring of the infiltrated plant) confirms PEAPOD functionality of the introduced gene, which can be shown in photographs.

B1: Arabidopsis PPD: Arabidopsis thaliana PEAPOD 1 protein, At4g14713, SEQ ID NO: 1 (protein, listed as Arabidopsis thaliana)
chain: MDVGVSPAKSILAKPLKLLTEEDISQLTREDCRKFLKDKGMRRPSWNKSQAIQQVLSLKALYEPGDDSGAGIFRKILVSQPVNPPRVTTTLIEPSNELEACGRVSYPEDNGACHRMDSPRSAEFSGGSGHFVSEKDGHKTTISPRSPAETSELVGQMTIFYSGKVNVYDGIPPEKARSIMHFAANPIDLPENGIFASSRMISKLISKEKMMELPQKGLEKANSSRDSGMEGQANRKVSLQRYREKRKDRKFSKAKKCPGVASSSLEMFLNCQPRMKAAYSQNLGCTGSPLHSQSPESQTKSPNLSVDLNSEGI
Y2H direct interaction with BZR1 (BZR1 [1]): no direct interaction | Y2H interaction with NINJA (NINJA): direct interactor | BiFC interaction with BZR1 (BZR1 [2]; fully expanded leaves, co-expression of NINJA): restored | BiFC interaction with BZR1 (BZR1 [2]; pavement cells of immature Nicotiana benthamiana leaves): appears to interact with BZR1 in the nucleus | PEAPOD functionality by complementation of Δppd mutant [3]: functionally equivalent
